These results are taken from US20180099015A1 (ADCURE BIOTECHNOLOGIES, published 2018).

As a reminder, the Kd is the constant that tells how readily two partners part at equilibrium. A high value points to a looser complex.

Assay [1] deals with blood coagulation factor X (UniProt P00742). The experiment in a line: FX binding to immobilised virus (2900 RU); method not given, SPR (Biacore) named for FIG. 14B.
For another assay, the target named is T1, sCAR (UniProt P78310 20-237).
T1 construct: also called soluble coxsackievirus and Ad receptor (CAR)
T1 sequence: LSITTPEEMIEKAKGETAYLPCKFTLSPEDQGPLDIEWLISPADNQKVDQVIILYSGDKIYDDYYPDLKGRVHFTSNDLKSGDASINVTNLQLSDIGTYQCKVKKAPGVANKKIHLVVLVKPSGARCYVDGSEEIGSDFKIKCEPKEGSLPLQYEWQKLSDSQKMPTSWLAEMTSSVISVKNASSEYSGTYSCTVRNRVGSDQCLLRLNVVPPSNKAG
The experiment in a line: not stated; row marked with an asterisk that has no footnote.

blood coagulation factor X, sequence (P00742 41-488 limits assumed): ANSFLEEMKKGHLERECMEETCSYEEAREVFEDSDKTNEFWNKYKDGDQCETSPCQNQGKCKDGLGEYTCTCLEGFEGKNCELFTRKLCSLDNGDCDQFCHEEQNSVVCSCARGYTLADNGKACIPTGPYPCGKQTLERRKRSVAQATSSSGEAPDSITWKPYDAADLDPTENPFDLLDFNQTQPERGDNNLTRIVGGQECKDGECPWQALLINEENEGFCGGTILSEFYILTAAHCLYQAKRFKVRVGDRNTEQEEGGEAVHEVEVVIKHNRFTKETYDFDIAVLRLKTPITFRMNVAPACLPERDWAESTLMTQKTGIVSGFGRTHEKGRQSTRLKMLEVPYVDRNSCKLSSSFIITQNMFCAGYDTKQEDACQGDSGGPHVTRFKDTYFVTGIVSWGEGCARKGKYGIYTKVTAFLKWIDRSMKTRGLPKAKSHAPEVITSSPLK

In turn, “human adenovirus serotype 4 (Ad4), virus particle (from UniProt P49810)” registered a Kd in assay [1] of 2480 nM.

B1: Ad5 partner of the row Ad5-sCAR* (other)
chain: GAITVGNKNNDKLTLWTTPAPSPNCRLNAEKDAKLTLVLTKCGSQILATVSVLAVKGSLAPISGTVQSAHLIIRFDENGVLLNNSFLDPEYWNFRNGDLTEGTAYTNAVGFMPNLSAYPKSHGKTAKSNIVSQVYLNGDKTKPVTLTITLNGTQETGDTTPSAYSMSFSWDWSGHNYINEIFATSSYTFSYIAQE
For B1, the dissociation constant Kd in the assay with sCAR worked out at 7.9 nM.

B2: Ad12 partner of the row Ad12-sCAR* (other)
chain: SNTPYDPLTLWTTPDPPPNCSLIQELDAKLTLCLTKNGSIVNGIVSLVGVKGNLLNIQSTTTTVGVHLVFDEQGRLITSTPTALVPQASWGYRQGQSVSTNTVTNGLGFMPNVSAYPRPNASEAKSQMVSLTYLQGDTSKPITMKVAFNGITSLNGYSLTFMWSGLSNYINQPFSTPSCSFSYITQE
B2: binding in the assay with sCAR was characterised by a dissociation constant (Kd) of 15 nM.
